Here are results for one substance from article PMC5965250.

This test deals with HyHEL-10 antibody. The experiment in a line: SPR; binding affinity of the HEL variants to HyHEL-10; who was immobilised is not shown (Fig. S20). For orientation: SPR reads the build-up and loss of mass on a sensor chip optically.

Turning to “HEL-K96Nvoc (10) (from UniProt P00698 19-147) (natural protein)”, the fold weaker binding affinity than native HEL worked out at 6000 fold.
